Assay results from patent US20110098217A1 (INDIANA UNIVERSITY RESEARCH AND TECHNOLOGY, published 2011).
Where “and” joins values, the source holds several entries; their conditions need not be identical. Equal entries are not always repeated. Where two headings read alike, the source gives them in different places. Bridge positions count the residues as written; N and C are the ends. Square brackets hold non-standard residues; d marks the D form. Ends that are not written are not given here. PhLac = O=C(O)[C@@H](O)Cc1ccccc1

Key:
[1] = target: T1, human glucagon receptor (human, UniProt P47871 26-477); experiment: cell-based or functional assay
T1 sequence (P47871 26-477): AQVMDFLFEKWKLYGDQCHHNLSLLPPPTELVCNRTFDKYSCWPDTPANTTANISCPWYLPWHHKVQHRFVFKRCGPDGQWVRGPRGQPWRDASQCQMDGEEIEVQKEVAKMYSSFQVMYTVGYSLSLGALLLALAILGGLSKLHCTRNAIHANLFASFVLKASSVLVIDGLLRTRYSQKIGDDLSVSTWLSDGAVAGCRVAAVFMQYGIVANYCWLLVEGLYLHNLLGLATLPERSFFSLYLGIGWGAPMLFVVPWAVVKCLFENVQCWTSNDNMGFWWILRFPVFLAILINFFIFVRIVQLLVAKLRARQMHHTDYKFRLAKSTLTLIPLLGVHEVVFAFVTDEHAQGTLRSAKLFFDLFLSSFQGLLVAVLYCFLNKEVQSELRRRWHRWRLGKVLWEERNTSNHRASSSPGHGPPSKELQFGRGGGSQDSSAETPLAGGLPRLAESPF

[2] = target: T2, human GLP-1 receptor (human, UniProt P43220 24-463); experiment: cell-based or functional assay
Target sequence in this assay (P43220 24-463): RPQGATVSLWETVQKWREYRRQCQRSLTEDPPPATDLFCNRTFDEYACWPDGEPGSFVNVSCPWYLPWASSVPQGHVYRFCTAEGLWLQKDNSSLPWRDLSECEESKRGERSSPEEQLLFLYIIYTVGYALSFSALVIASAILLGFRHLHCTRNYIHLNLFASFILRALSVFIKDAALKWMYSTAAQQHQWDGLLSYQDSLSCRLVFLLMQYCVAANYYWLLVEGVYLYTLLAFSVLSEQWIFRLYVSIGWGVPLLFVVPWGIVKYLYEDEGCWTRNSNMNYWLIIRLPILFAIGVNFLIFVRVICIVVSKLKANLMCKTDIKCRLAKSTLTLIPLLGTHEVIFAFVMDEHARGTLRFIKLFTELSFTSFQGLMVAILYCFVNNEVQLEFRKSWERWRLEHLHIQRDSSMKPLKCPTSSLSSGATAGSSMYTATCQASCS

[3] = target: T1, human glucagon receptor; experiment: cell-based or functional assay; remark: listed apart in the source
[4] = target: T2, human GLP-1 receptor; experiment: cell-based or functional assay; remark: listed apart in the source
[5] = target: T1, human glucagon receptor; experiment: cell-based or functional assay; remark: listed apart in the source
[6] = target: T2, human GLP-1 receptor; experiment: cell-based or functional assay; remark: listed apart in the source
[7] = target: T1, human glucagon receptor; experiment: cell-based or functional assay; remark: listed apart in the source
[8] = target: T2, human GLP-1 receptor; experiment: cell-based or functional assay; remark: listed apart in the source
[9] = target: T1, human glucagon receptor; experiment: cell-based or functional assay; remark: listed apart in the source
[10] = target: T2, human GLP-1 receptor; experiment: cell-based or functional assay; remark: listed apart in the source
[11] = target: T1, human glucagon receptor; experiment: cell-based or functional assay; remark: listed apart in the source
[12] = target: T2, human GLP-1 receptor; experiment: cell-based or functional assay; remark: listed apart in the source
[13] = target: T1, human glucagon receptor; experiment: cell-based or functional assay; remark: listed apart in the source
[14] = target: T2, human GLP-1 receptor; experiment: cell-based or functional assay; remark: listed apart in the source
[15] = target: T1, human glucagon receptor; experiment: cell-based or functional assay; remark: listed apart in the source
[16] = target: T2, human GLP-1 receptor; experiment: cell-based or functional assay; remark: listed apart in the source
[17] = target: T1, human glucagon receptor; experiment: cell-based or functional assay; remark: listed apart in the source
[18] = target: T2, human GLP-1 receptor; experiment: cell-based or functional assay; remark: listed apart in the source
[19] = target: T2, human GLP-1 receptor; experiment: cell-based or functional assay; remark: listed apart in the source
[20] = target: T1, human glucagon receptor; experiment: cell-based or functional assay; remark: listed apart in the source
[21] = target: T2, human GLP-1 receptor; experiment: cell-based or functional assay; remark: listed apart in the source
[22] = target: T1, human glucagon receptor; experiment: cell-based or functional assay; remark: listed apart in the source
[23] = target: T2, human GLP-1 receptor; experiment: cell-based or functional assay; remark: listed apart in the source
[24] = target: T1, human glucagon receptor; experiment: cell-based or functional assay; remark: listed apart in the source
[25] = target: T1, human glucagon receptor; experiment: cell-based or functional assay; remark: listed apart in the source
[26] = target: human GLP-1 receptor (human) (UniProt P43220); experiment: cell-based or functional assay
human GLP-1 receptor (human), sequence (P43220 24-463): as above

[27] = target: human glucagon receptor (human) (UniProt P47871); experiment: cell-based or functional assay
human glucagon receptor (human), sequence (P47871 26-477): as the sequence (P47871 26-477) above

[28] = target: human GLP-1 receptor (human) (UniProt P43220); experiment: cell-based or functional assay; remark: listed apart in the source
[29] = target: human glucagon receptor (human) (UniProt P47871); experiment: cell-based or functional assay; remark: listed apart in the source
[30] = target: T1, human glucagon receptor; experiment: cell-based or functional assay; remark: listed apart in the source
[31] = target: T1, human glucagon receptor; experiment: SPA competition vs 125I-glucagon, receptor membranes
[32] = target: T1, human glucagon receptor; experiment: as above; remark: listed apart in the source
[33] = target: T1, human glucagon receptor; experiment: as above; remark: listed apart in the source
[34] = target: T1, human glucagon receptor; experiment: cell-based or functional assay; remark: listed apart in the source
[35] = target: T1, human glucagon receptor; experiment: cell-based or functional assay; remark: listed apart in the source
[36] = target: T1, human glucagon receptor; experiment: SPA competition vs 125I-glucagon, receptor membranes; remark: listed apart in the source
[37] = target: T1, human glucagon receptor; experiment: cell-based or functional assay; remark: listed apart in the source
[38] = target: T1, human glucagon receptor; experiment: SPA competition vs 125I-glucagon, receptor membranes; remark: listed apart in the source
[39] = target: T1, human glucagon receptor; experiment: as above; remark: listed apart in the source
[40] = target: T2, human GLP-1 receptor; experiment: cell-based or functional assay; remark: listed apart in the source

[PLA6, E9, K12E16(Lactam)] glucagon(6-39) (peptide)
Glu IC50 [1]: 72 nM | Glucagon IC50 [1]: 72 nM | GLP-1 EC50 [2]: 6 nM

HSQGTFTSDYSRYLDSRRAQDFVQWLMNK [Glucagon R12 K29]
cAMP Induction EC50 [3]: 0.81 nM | cAMP Induction EC50 [4]: 0.41 nM

B1: [PLA6, K12E16(lactam), D28]G(6-29) (peptide)
peptide: [PhLac]TSDYSKYLDERRAQDFVQWLMDT-NH2
modifications: lactam 7-11; N-terminus assumed
SMILES: CSCC[C@H](NC(=O)[C@H](CC(C)C)NC(=O)[C@H](Cc1c[nH]c2ccccc12)NC(=O)[C@H](CCC(N)=O)NC(=O)[C@@H](NC(=O)[C@H](Cc1ccccc1)NC(=O)[C@H](CC(=O)O)NC(=O)[C@H](CCC(N)=O)NC(=O)[C@H](C)NC(=O)[C@H](CCCNC(=N)N)NC(=O)[C@H](CCCNC(=N)N)NC(=O)[C@@H]1CCC(=O)NCCCC[C@H](NC(=O)[C@H](CO)NC(=O)[C@H](Cc2ccc(O)cc2)NC(=O)[C@H](CC(=O)O)NC(=O)[C@H](CO)NC(=O)[C@@H](NC(=O)[C@@H](O)Cc2ccccc2)[C@@H](C)O)C(=O)N[C@@H](Cc2ccc(O)cc2)C(=O)N[C@@H](CC(C)C)C(=O)N[C@@H](CC(=O)O)C(=O)N1)C(C)C)C(=O)N[C@@H](CC(=O)O)C(=O)N[C@H](C(N)=O)[C@@H](C)O
Glucagon IC50 [5]: 63 nM | GLP-1 EC50 [6]: 177 nM | Glucagon IC50 [7]: 13 nM | GLP-1 EC50 [8]: 21 nM | Glucagon antagonism IC50 (inhibit 0.2-0.8 nM glucagon) [9]: 58.3 nM | GLP-1 agonism EC50 [10]: 38.5 nM | Glucagon antagonism IC50 (inhibit 0.2-0.8 nM glucagon) [11]: 58.3 nM | GLP-1 agonism EC50 [12]: 38.5 nM | Glucagon antagonism IC50 (inhibit 0.2-0.8 nM glucagon) [13]: 58.3 nM | GLP-1 agonism EC50 [14]: 38.5 nM

[PhLac]TSDYSKYLDERRAKDFVQWLMDT-NH2 (lactam 11-15) [[PLA6, E16K20(lactam), D28]G(6-29)]
Glucagon IC50 [7]: 6 nM | GLP-1 EC50 [8]: 4 nM | Glucagon antagonism IC50 (inhibit 0.2-0.8 nM glucagon) [9]: 11.7 nM and 5.5 nM | GLP-1 agonism EC50 [10]: 6.9 nM and 4.2 nM | Glucagon antagonism IC50 (inhibit 0.2-0.8 nM glucagon) [11]: 11.7 nM and 5.5 nM | GLP-1 agonism EC50 [12]: 6.9 nM and 4.2 nM | Glucagon antagonism IC50 (inhibit 0.8 nM glucagon) [15]: 13.7 nM | GLP-1 agonism EC50 [16]: 10.6 nM | Glucagon antagonism IC50 (inhibit 0.8 nM glucagon) [17]: 13.7 nM | GLP-1 agonism EC50 [18]: 10.6 nM | GLP-1 agonism EC50 [19]: 20.7 nM | Glucagon antagonism IC50 (inhibit 0.4 nM glucagon) [20]: 4.14 nM and 7.99 nM | GLP-1 agonism EC50 [21]: 48 nM | Glucagon antagonism IC50 (inhibit 0.8 nM glucagon) [22]: 20.3 nM | GLP-1 agonism EC50 [23]: 18.2 nM

GTFTSEYSKYLDSRRAQDFVQWLMNT-NH2 (also called peptide no) [[Glu^9]Glucagon(aa4-29)-NH2]
cAMP Inhibition IC50 [24]: 128 nM | cAMP pA2 [25]: 7.05

FTSDYSKYLDERRAQDFVQWLMNTGPSSGAPPPS (lactam bridge Lys12-Glu16; C-terminal amide) [D9, K12E16(Lactam) glucagon(6-39)]
GLP-1 EC50 [26]: 119 nM | Glu IC50 [27]: 828 nM | GLP-1 EC50 [28]: 18 nM | Glucagon IC50 [29]: 828 nM

B2: [Glu^9]Glucagon(aa6-29)-NH2 (peptide)
peptide: FTSEYSKYLDSRRAQDFVQWLMNT-NH2
notes: also called [E^9]Glucagon(aa6-29)-NH2; peptide no; 11
cAMP Inhibition IC50 [24]: 97 nM | cAMP (I/A)50 inhibition index [25]: 486 | cAMP pA2 [25]: 7.16 | cAMP IC50 [30]: 97.2 nM | cAMP pA2 [30]: 7.16 | IC50 [31]: 36 nM | IC50 [32]: 36.4 nM | IC50 [33]: 36.4 nM

B3: [PLA^6, D^9, D^28] Glucagon(aa6-29)-NH2 (peptide)
peptide: FTSDYSKYLDSRRAQDFVQWLMDT
modifications: PLA at position 6; C-terminal amide
notes: also called [PLA6, D9, D28]Glucagon(6-29)
IC50 (cAMP, inhibit 0.1 nM Glucagon) [34]: 1.32 nM | Glucagon antagonism IC50 (inhibit 0.5nM G) [35]: 9.03 nM | IC50 [36]: 9 nM

B4: [PLA^6, E^9]Glucagon(aa6-29)-NH2 (peptide)
peptide: [PhLac]TSEYSKYLDSRRAQDFVQWLMNT-NH2
notes: also called [PLA6, E9]; G(6-29); [PLA6, E9]Glucagon(6-29)
IC50 (cAMP, inhibit 0.1 nM Glucagon) [34]: 2.39 nM | IC50 (cAMP, inhibit 0.2 nM Glucagon) [34]: 42.4 nM | IC50 (cAMP, inhibit 0.8 mM Glucagon) [37]: 64.8 nM | Glucagon antagonism IC50 (inhibit 0.8 nM glucagon) [22]: 94.7 nM | GLP-1 agonism EC50 [23]: 901 nM | Glucagon antagonism IC50 (inhibit 0.5nM G) [35]: 23.8 nM | fold increase of affinity relative to the native Phe6 analog [38]: 3 fold | IC50 [36]: 12.3 nM | IC50 [39]: 12.3 nM

SQGTXTSEYSKYLDSRRAQDFVQWLMNT (depsipeptide bond between Thr5 and PLA6; C-terminal amide) [[Thr5-O-PLA6,E9]Glucagon(2-29)]
Glucagon antagonism IC50 (inhibit 0.5nM G) [35]: 6.49 nM | GLP-1 agonism EC50 [40]: 1310 nM
